Data as given in patent publication US20040248807A1.

Tests used:
Human α-thrombin (human) [1] = target: Human α-thrombin (human) (UniProt P00734); assay: fluorescence polarization competition against 2 nM fluoresceinated γ′408-427 phosphorylated peptide, 2 µM α-thrombin
Human γ-thrombin (human) = Human γ-thrombin (human) (UniProt P00734); assay: fluorescence polarization, fluoresceinated peptide titrated with γ-thrombin
Human α-thrombin (human) [2] = target: Human α-thrombin (human) (UniProt P00734); assay: fluorescence polarization, 2 nM fluoresceinated peptide titrated with α-thrombin

Sequence of fluoresceinated γ′408-427 peptide, …-Y(PO3)-DSL-Y(PO3)-PEDDL (P02679 434-453): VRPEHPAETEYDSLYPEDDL

| Substance | Ki (Human α-thrombin (human) [1]) | Kd (Human γ-thrombin (human)) | Kd (Human α-thrombin (human) [2]) |
| --- | --- | --- | --- |
| γ′408-427 peptide, doubly phosphorylated, unlabeled, …-Y(PO3)-DSL-Y(PO3)-PEDDL | 520 nM | – | – |
| fluoresceinated γ′408-427 peptide, …-Y(PO3)-DSL-Y(PO3)-PEDDL | – | 610 nM | 430 nM |
